The values that follow come from publication PMC6251626.

The assay has as its target αβ-tubulin heterodimer purified from porcine brains (porcine) (UniProt P02550). The experiment in a line: ITC; DRP or DRPΔN (135-250 μM) injected into αβ-tubulin (20-40 μM); 25°C, 50 mM HEPES pH 7.3, 100 mM KCl, 1 mM MgCl2, 50 μM GDP. On the technique in general: In ITC the heat of successive injections is recorded.

As a reminder, the Kd is the concentration at which binding is half-saturated. Substance “DRPΔN (DARPin D1 without its N-terminal ankyrin repeat) (designed binder)” came in with a Kd of 461 nM.
